Assay results as given in paper PMC4036194, “Crystal Structure and Molecular Imaging of the Nav Channel β3 Subunit Indicates a Trimeric Assembly*” (The Journal of Biological Chemistry, 2014).

Key:
[1] = target: T1, Human Nav 1.5 α subunit with a carboxyl-terminal hemagglutinin (HA) epitope tag (human, UniProt Q14524 1-2016); test: atomic force microscopy (AFM) imaging; α subunit isolated through its HA tag from tsA 201 cells co-transfected with wild-type Myc-tagged β3; co-isolated sample on mica, imaged in air in tapping mode; conditions: both partners purified
T1 construct: Nav 1.5 sodium channel α subunit, human; ~250 kDa; Construct provided by Dr. C; source: tsA 201 cells, transfected (pcDNA3N); immunoisolated from detergent extract (anti-HA agarose, HA peptide elution); not shown: HA, C-terminal, kept

[2] = target: the molecule itself; test: fluorescence photoactivated localization microscopy (FPALM) with pair correlation analysis; mEos2 fusions on the plasma membrane of fixed, transfected HEK293 cells; TIRF-PALM; 30 regions of 1 μm^2 on five cells; proteins per cluster
[3] = target: the molecule itself; test: crystal structure; deglycosylated β3 Ig domain; sitting drop, 1 M sodium citrate tribasic, 0.1 M CHES/sodium hydroxide pH 9.5, 19 °C; space group P3(1)21, three molecules in the asymmetric unit; 2.5 Å

T1 sequence (Q14524 whole entry): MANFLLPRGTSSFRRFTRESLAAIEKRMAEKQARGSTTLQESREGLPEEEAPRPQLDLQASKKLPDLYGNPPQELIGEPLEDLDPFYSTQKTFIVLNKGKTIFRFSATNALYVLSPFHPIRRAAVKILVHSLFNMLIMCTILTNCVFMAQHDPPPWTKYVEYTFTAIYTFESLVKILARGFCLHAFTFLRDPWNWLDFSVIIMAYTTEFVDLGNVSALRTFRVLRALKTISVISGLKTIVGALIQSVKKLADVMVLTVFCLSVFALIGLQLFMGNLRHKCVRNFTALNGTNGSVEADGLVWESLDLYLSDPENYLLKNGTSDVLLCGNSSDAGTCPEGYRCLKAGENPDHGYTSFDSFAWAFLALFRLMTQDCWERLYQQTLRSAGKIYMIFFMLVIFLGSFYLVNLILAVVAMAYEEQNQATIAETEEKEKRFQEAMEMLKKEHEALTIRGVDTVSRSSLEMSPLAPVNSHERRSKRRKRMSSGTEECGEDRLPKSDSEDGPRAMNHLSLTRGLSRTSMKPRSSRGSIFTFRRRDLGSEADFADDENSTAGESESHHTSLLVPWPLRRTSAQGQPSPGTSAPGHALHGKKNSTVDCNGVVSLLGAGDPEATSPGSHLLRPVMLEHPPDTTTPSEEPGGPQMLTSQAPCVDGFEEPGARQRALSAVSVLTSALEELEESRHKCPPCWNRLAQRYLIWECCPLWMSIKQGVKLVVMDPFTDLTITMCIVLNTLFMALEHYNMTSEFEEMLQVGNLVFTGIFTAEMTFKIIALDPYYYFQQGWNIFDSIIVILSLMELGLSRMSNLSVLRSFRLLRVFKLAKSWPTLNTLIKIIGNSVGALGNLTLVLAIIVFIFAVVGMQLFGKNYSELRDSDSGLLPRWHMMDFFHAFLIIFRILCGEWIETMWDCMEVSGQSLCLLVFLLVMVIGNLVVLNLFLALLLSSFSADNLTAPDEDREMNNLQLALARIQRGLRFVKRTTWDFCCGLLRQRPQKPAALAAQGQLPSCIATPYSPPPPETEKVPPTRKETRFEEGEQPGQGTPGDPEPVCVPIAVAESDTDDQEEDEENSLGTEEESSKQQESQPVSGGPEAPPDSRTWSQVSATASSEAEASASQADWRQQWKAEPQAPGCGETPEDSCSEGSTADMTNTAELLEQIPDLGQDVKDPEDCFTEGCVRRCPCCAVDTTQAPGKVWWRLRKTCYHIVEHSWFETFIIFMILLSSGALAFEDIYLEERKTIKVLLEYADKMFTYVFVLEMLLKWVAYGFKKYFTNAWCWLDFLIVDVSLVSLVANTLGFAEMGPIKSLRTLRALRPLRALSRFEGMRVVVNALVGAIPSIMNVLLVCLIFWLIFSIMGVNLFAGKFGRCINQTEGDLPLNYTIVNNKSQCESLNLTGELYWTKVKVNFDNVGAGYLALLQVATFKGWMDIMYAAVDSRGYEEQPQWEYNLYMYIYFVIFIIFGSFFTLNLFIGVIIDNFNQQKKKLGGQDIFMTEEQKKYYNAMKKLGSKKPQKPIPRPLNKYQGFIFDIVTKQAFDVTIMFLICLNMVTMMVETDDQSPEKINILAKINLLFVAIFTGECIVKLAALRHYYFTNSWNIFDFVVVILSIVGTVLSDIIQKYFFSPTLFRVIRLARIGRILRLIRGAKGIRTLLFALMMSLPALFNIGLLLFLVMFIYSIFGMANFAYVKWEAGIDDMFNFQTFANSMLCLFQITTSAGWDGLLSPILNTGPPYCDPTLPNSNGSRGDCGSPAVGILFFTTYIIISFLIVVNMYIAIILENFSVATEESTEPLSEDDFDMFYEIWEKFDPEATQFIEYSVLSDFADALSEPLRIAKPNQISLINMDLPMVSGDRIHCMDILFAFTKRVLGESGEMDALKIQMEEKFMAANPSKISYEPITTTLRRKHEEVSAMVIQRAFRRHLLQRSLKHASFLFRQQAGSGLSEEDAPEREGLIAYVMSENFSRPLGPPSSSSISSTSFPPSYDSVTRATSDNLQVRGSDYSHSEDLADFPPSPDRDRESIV

B1: Full-length human β3 subunit with a carboxyl-terminal Myc epitope tag (natural protein, UniProt Q9NY72 23-215, looked up)
chain: FPVCVEVPSETEAVQGNPMKLRCISCMKREEVEATTVVEWFYRPEGGKDFLIYEYRNGHQEVESPFQGRLQWNGSKDLQDVSITVLNVTLNDSGLYTCNVSREFEFEAHRPFVKTTRLIPLRVTEEAGEDFTSVVSEIMMYILLVFLTLWLLIEMIYCYRKVSKAEEAAQENASDYLAIPSENKENSAVPVEE
notes: Nav channel β3 subunit (SCN3B), human, full length; runs at ~40 kDa (glycosylated) and ~30 kDa (likely unglycosylated); numbers count on: the mature protein; also called Myc-tagged β3 subunit; wild-type β3; source: tsA 201 cells, transfected (pFastBacMam); immunoisolated from detergent extract (anti-Myc agarose, Myc peptide elution); in detergent extract of co-transfected cells for co-isolation …
stoichiometry N [1]: 4

B2: Full-length β3 subunit tagged at the carboxyl terminus with mEos2 (natural protein, UniProt Q9NY72 23-215, looked up)
chain: B1 chain
notes: Nav channel β3 subunit (SCN3B), full length; also called β3-mEos2; β3-mEOS2; source: HEK293 cells, transiently transfected, on the plasma membrane of fixed cells; not shown: mEos2, C-terminal, kept
stoichiometry N [2]: 3

B3: Nav channel β3 subunit Ig domain with carboxyl-terminal hexa-His tag (domain or fragment, human)
chain: VCVEVPSETEAVQGNPMKLRCISCMKREEVEATTVVEWFYRPEGGKDFLIYEYRNGHQEVESPFQGRLQWNGSKDLQDVSITVLNVTLNDSGLYTCNVSREFEFEAHRPFVKTTRLIPLRV
modifications: disulfide bonds Cys-2–24 and Cys-21–96
notes: Nav channel β3 subunit (SCN3B), human, extracellular Ig domain; the cDNA also encodes the amino-terminal ER targeting signal, which was efficiently removed on secretion; 127 amino acids in total, theoretical mass 14.8 kDa; numbers count on: the mature protein; Deglycosylated with peptide:N-glycosidase F for crystallisation; chemically cross-linked for AUC; Surmise: the 127 residues are the mature …
stoichiometry N [3]: 3
